Assay results: paper PMC10094033, “pilE G-Quadruplex Is Recognized and Preferentially Bound but Not Processed by the MutL Endonuclease from Neisseria gonorrhoeae Mismatch Repair Pathway”

What was measured:
ngMutL [1] = molecular target: T1, ngMutL (Neisseria gonorrhoeae, UniProt Q5F8M6 1-658); test: EMSA; apparent Kd, per dimer; no ATP; 20 mM HEPES pH 8.0, 100 mM KCl, 0.5 mg/mL BSA, 1 mM DTT, 20 nM DNA, 15-1000 nM ngMutL dimer, 10 min on ice; 6% native PAGE in TAE at 4 C; settings: protein: recombinant, tags: N-terminal His6, chain copies: 2, label: 3'-TAMRA on strand 1, blunt
T1 sequence: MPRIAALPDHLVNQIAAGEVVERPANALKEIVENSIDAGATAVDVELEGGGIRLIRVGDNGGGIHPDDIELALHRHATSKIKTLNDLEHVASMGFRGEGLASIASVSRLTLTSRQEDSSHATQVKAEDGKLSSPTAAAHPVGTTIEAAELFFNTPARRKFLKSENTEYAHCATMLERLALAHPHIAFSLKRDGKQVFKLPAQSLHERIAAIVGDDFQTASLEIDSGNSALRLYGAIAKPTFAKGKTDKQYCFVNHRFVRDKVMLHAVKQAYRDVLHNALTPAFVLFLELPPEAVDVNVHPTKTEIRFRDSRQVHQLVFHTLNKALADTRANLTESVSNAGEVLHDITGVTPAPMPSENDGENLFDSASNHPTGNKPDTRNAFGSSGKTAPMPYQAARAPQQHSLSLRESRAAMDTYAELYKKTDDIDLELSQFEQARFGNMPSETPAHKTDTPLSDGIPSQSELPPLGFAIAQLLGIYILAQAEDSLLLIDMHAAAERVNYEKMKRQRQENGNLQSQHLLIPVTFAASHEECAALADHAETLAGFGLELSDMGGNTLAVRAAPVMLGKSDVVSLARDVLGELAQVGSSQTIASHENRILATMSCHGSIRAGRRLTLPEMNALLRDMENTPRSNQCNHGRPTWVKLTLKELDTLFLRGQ

ngMutL [2] = molecular target: T1, ngMutL; test: EMSA; increasing ATP; binding not significantly reduced by ATP; 20 mM HEPES pH 8.0, 100 mM KCl, 0.5 mg/mL BSA, 1 mM DTT, 20 nM DNA, 15-1000 nM ngMutL dimer, 10 min on ice; 6% native PAGE in TAE at 4 C; settings: protein: recombinant; tags: N-terminal His6; chain copies: 2; label: 3'-TAMRA on strand 1; duplex with unpaired G4 insert in strand 1, blunt ends

B1: 41pilG4/41M (dsDNA)
DNA 1: ACGCGTTAGAATAGGGTGGGTTGGGTGGGGAATTTTCTATT
DNA 2: AATAGAAAATTCCCCACCCAACCCACCCTATTCTAACGCGT
**Q.** B1 was tested. Which Kd (ngMutL [1]; G4 may be partially preserved by CD) did it give?
**A.** 650 nM

B2: 95G4/76M (mixed)
DNA 1: ATAGGACGCTGACACTGGTGCTTGGCAGCTGAGCCATATTTGGGTGGGTGGGTGGGTTGCTCGAGTAACGCTCATAGGATCCAAGCGCGAAAGGA
DNA 2: TCCTTTCGCGCTTGGATCCTATGAGCGTTACTCGAGCATATGGCTCAGCTGCCAAGCACCAGTGTCAGCGTCCTAT
**Q.** Does B2 bind (ngMutL [2])?
**A.** binds

B3: 95pilG4/95M (dsDNA)
DNA 1: GTCGGAATTTGAGATTTTTGAATTTACGCGTTAGAATAGGGTGGGTTGGGTGGGGAATTTTCTATTTTTTAAAAAGCTCCGTTTTCTTGGAAAGC
DNA 2: GCTTTCCAAGAAAACGGAGCTTTTTAAAAAATAGAAAATTCCCCACCCAACCCACCCTATTCTAACGCGTAAATTCAAAAATCTCAAATTCCGAC
**Q.** How did the Kd (ngMutL [1]) turn out when B3 was run?
**A.** 123 nM
